For assay [1], the target named is T1, human soluble urokinase plasminogen activator receptor (suPAR) (human, UniProt Q03405 23-303, limits assumed).
T1 construct: Column head says only 'human'; also called hsuPAR; human suPAR
The assay can be described thus: BLI (Octet) off-rate screen of scFv clones.

The target in assay [2] is T2, cynomolgus soluble urokinase plasminogen activator receptor (suPAR) (cynomolgus, UniProt Q9GK78 23-303, limits assumed).
T2 construct: Column head says only 'cynomologus'; also called cynomolgus suPAR; cynomolgus uPAR
T2 sequence (Q9GK78 23-303 limits assumed): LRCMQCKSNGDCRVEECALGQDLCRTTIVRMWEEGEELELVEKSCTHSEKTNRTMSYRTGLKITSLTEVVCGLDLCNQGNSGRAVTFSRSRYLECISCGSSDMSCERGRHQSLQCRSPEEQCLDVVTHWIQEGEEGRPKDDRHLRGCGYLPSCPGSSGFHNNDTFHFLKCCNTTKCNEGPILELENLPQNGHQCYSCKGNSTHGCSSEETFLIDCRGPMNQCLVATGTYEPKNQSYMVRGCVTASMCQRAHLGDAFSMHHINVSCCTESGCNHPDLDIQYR
The assay can be described thus: BLI (Octet) off-rate screen of scFv clones. (BLI is a label-free optical method that tracks binding on a fibre tip over time.)

T1 sequence (Q03405 23-303 limits assumed): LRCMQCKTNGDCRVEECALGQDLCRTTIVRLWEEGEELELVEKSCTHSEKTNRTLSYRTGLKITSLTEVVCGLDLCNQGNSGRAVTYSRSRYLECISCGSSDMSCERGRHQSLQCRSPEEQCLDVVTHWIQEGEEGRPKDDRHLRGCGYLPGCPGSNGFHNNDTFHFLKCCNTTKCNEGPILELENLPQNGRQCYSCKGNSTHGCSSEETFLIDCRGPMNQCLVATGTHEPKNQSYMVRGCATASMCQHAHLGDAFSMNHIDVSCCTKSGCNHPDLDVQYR

B1: suPAR_DB05_A05 (scFv, V domains shown)
VH: QVQLVQSGAEVKKPGASVKVSCKASGYTFTNYYMHWVRQAPGQGLEWMGWIDPSGGSTSYAQKFQGRVTMTRDTSTSTVYMELSSLRSEDTAVYYCARGYDVDWFVYWGQGTLVTVSS
VL: DIQMTQSPSSLSASVGDRVTITCRARQSVSYMYWYQQKPGKAPKLLIYRTSNLASGVPSRFSGSGSGTDFTLTISSLQPEDFATYYCQQYHSYPPTFGGGTKVEIK
notes: Screened as scFv
For B1, the off-rate (koff) – broadly, the rate constant with which the complex falls apart – in assay [1] was found to be 0.00553 s⁻¹; in assay [2], 0.000639 s⁻¹.

B2: suPAR_DB05_B02 (scFv, V domains shown)
VH: QVQLVQSGAEVKKPGASVKVSCKASGYTIKDYYIHWVRQAPGQGLEWMGWIDPENGNTIYAQKFQGRVTMTRDTSTSTVYMELSSLRSEDTAVYYCARGYDVDWFVYWGQGTLVTVSS
VL: DIQMTQSPSSLSASVGDRVTITCSARSSVSYMYWYQQKPGKAPKLLIYRTSNLASGVPSRFSGSGSGTDFTLTISSLQPEDFATYYCQQYHSYPPTFGGGTKVEIK
notes: Screened as scFv
As for B2, the koff in assay [1] turned out to be 0.00565 s⁻¹; in assay [2], 0.000419 s⁻¹.

B3: suPAR_DB05_B03 (scFv, V domains shown)
VH: QVQLVQSGAEVKKPGASVKVSCKASGYTFTSYYIHWVRQAPGQGLEWIGWMDPNSGSAAYAQKFQGRVTMTRDTSTSTVYMELSSLRSEDTAVYYCARGYDVDWFVYWGQGTLVTVSS
VL: DIQMTQSPSSLSASVGDRVTITCSARSSVSYMYWYQQKPGKAPKLLIYRTSNLASGVPSRFSGSGSGTDFTLTISSLQPEDFATYYCQQYHSYPPTFGGGTKVEIK
notes: Screened as scFv
Turning to B3, the koff in assay [1] is 0.00366 s⁻¹; in assay [2], 0.000311 s⁻¹.

B4: suPAR_DB05_A06 (scFv, V domains shown)
VH: QVQLVQSGAEVKKPGASVKVSCKASGYTFTSHYVHWVRQAPGQGLEWMGWIDHENGNTIYDQKFQGRVTMTRDTSTSTVYMELSSLRSEDTAVYYCARGYDVDWFVYWGQGTLVTVSS
VL: DIQMTQSPSSLSASVGDRVTITCSARSSVSYMYWYQQKPGKAPKLLIYRTSNLASGVPSRFSGSGSGTDFTLTISSLQPEDFATYYCQQYHSYPPTFGGGTKVEIK
notes: Screened as scFv
For B4, the dissociation rate constant (koff) was found to be 0.00352 s⁻¹ in assay [1] and 0.000277 s⁻¹ in assay [2].

B5: suPAR_DB05_A08 (scFv, V domains shown)
VH: QVQLVQSGAEVKKPGASVKVSCKASGYTFTNYYMHWVRQAPGQGLEWMGWIDSNSGGTNYAQKFQGRVTMTRDTSTSTVYMELSSLRSEDTAVYYCARGYDVDWFVYWGQGTLVTVSS
VL: DIQMTQSPSSLSASVGDRVTITCSARSSVSYMYWYQQKPGKAPKLLIYRTSNLASGVPSRFSGSGSGTDFTLTISSLQPEDFATYYCQQYHSYPPTFGGGTKVEIK
notes: Screened as scFv
As to B5, the off-rate constant (koff) in assay [1] turned out to be 0.00307 s⁻¹; in assay [2] it was 9.8e-05 s⁻¹.

B6: suPAR_DB05_C02 (scFv, V domains shown)
VH: QVQLVQSGAEVKKPGASVKVSCKASGDTFTSYYMHWVRQAPGQGLEWMGWIDPSNGNTIYDQKFQGRVTMTRDTSTSTVYMELSSLRSEDTAVYYCARGYDVDWFVYWGQGTLVTVSS
VL: DIQMTQSPSSLSASVGDRVTITCSARSSVSYMYWYQQKPGKAPKLLIYRTSNLASGVPSRFSGSGSGTDFTLTISSLQPEDFATYYCQQYHSYPPTFGGGTKVEIK
notes: Screened as scFv
B6: the koff was found to be 0.00375 s⁻¹ in assay [1] and 0.00061 s⁻¹ in assay [2].

B7: suPAR_DB05_B11 (scFv, V domains shown)
VH: QVQLVQSGAEVKKPGASVKVSCKASGYTFSAYYMHWVRQAPGQGLEWMGWIDHENGNTIYAQKFQGRVTMTRDTSTSTVYMELSSLRSEDTAVYYCARGYDVDWFVYWGQGTLVTVSS
VL: DIQMTQSPSSLSASVGDRVTITCSARSSVSYMYWYQQKPGKAPKLLIYRTSNLASGVPSRFSGSGSGTDFTLTISSLQPEDFATYYCQQYHSYPPTFGGGTKVEIK
notes: Screened as scFv
On to B7, for which the koff was found to be 0.00219 s⁻¹ in assay [1] and 0.000431 s⁻¹ in assay [2].

B8: suPAR_DB05_B09 (scFv, V domains shown)
VH: QVQLVQSGAEVKKPGASVKVSCKASGYTFTGYYMHWVRQAPGQGLEWMGWIDPSGGNTIYDQKFQGRVTMTRDTSTSTVYMELSSLRSEDTAVYYCARGYDVDWFVYWGQGTLVTVSS
VL: DIQMTQSPSSLSASVGDRVTITCSARSSVSYMYWYQQKPGKAPKLLIYRTSNLASGVPSRFSGSGSGTDFTLTISSLQPEDFATYYCQQYHSYPPTFGGGTKVEIK
notes: Screened as scFv
Consider B8, for which the koff in assay [1] came to 0.00273 s⁻¹; in assay [2] it was 0.000583 s⁻¹.

B9: suPAR_DB05_A07 (scFv, V domains shown)
VH: QVQLVQSGAEVKKPGASVKVSCKASGYTFTNYYMQWVRQAPGQGLEWMGWIDHENGNTIYAQKFQGRVTMTRDTSTSTVYMELSSLRSEDTAVYYCARGYDVDWFVYWGQGTLVTVSS
VL: DIQMTQSPSSLSASVGDRVTITCSARQSVSYMYWYQQKPGKAPKLLIYRTSNLASGVPSRFSGSGSGTDFTLTISSLQPEDFATYYCQQYHSYPPTFGGGTKVEIK
notes: Screened as scFv
For B9, the values for the dissociation rate constant (koff) in assay [1] and in assay [2] were 0.00495 s⁻¹ and 0.00029 s⁻¹, respectively.

B10: suPAR_DB05_B05 (scFv, V domains shown)
VH: QVQLVQSGAEVKKPGASVKVSCKASGNTFSGYYVHWVRQAPGQGLEWMGWIDPSNGNTIYDQKFQGRVTMTRDTSTSTVYMELSSLRSEDTAVYYCARGYDVDWFVYWGQGTLVTVSS
VL: DIQMTQSPSSLSASVGDRVTITCSARSSVSYMYWYQQKPGKAPKLLIYRTSNLASGVPSRFSGSGSGTDFTLTISSLQPEDFATYYCQQYHSYPPTFGGGTKVEIK
notes: Screened as scFv
Regarding B10, the koff in assay [1] was determined as 0.00417 s⁻¹; in assay [2], 0.000193 s⁻¹.

B11: suPAR_DB05_A10 (scFv, V domains shown)
VH: QVQLVQSGAEVKKPGASVKVSCKASGYTFTNYYIHWVRQAPGQGLEWMGWIDPSNGNTIYDQKFQGRVTMTRDTSTSTVYMELSSLRSEDTAVYYCARGYDVDWFVYWGQGTLVTVSS
VL: DIQMTQSPSSLSASVGDRVTITCSARSSVSYMYWYQQKPGKAPKLLIYRTSNLASGVPSRFSGSGSGTDFTLTISSLQPEDFATYYCQQYHSYPPTFGGGTKVEIK
notes: Screened as scFv
In the case of B11, the koff in assay [1] came out at 0.00541 s⁻¹; in assay [2], 0.000462 s⁻¹.

B12: suPAR_DB05_B01 (scFv, V domains shown)
VH: QVQLVQSGAEVKKPGASVKVSCKASGYPFTSYYMHWVRQAPGQGLEWMGWIDHENGNTIYDQKFQGRVTMTRDTSTSTVYMELSSLRSEDTAVYYCARGYDVDWFVYWGQGTLVTVSS
VL: DIQMTQSPSSLSASVGDRVTITCSASSSVSYMYWYQQKPGKAPKLLIYRTSNLASGVPSRFSGSGSGTDFTLTISSLQPEDFATYYCQQYHSYPPTFGGGTKVEIK
notes: Screened as scFv
For B12, the koff came out at 0.00356 s⁻¹ in assay [1] and 0.000232 s⁻¹ in assay [2].

B13: suPAR_DB05_B08 (scFv, V domains shown)
VH: QVQLVQSGAEVKKPGASVKVSCKASGNAFSGHYVHWVRQAPGQGLEWMGWIDHENGNTIYAQKFQGRVTMTRDTSTSTVYMELSSLRSEDTAVYYCARGYDVDWFVYWGQGTLVTVSS
VL: DIQMTQSPSSLSASVGDRVTITCSARQSVSYMYWYQQKPGKAPKLLIYRTSNLASGVPSRFSGSGSGTDFTLTISSLQPEDFATYYCQQYHSYPPTFGGGTKVEIK
notes: Screened as scFv
For the molecule B13, the koff in assay [1] turned out to be 0.00488 s⁻¹; in assay [2], 0.000129 s⁻¹.

B14: suPAR_DB05_B06 (scFv, V domains shown)
VH: QVQLVQSGAEVKKPGASVKVSCKASGYPFTNYYMHWVRQAPGQGLEWMGWIDHEGGSTIYDQKFQGRVTMTRDTSTSTVYMELSSLRSEDTAVYYCARGYDVDWFVYWGQGTLVTVSS
VL: DIQMTQSPSSLSASVGDRVTITCSASQSVSYMYWYQQKPGKAPKLLIYRTSNLASGVPSRFSGSGSGTDFTLTISSLQPEDFATYYCQQYHSYPPTFGGGTKVEIK
notes: Screened as scFv
B14: the values for the dissociation rate constant (koff) in assay [1] and in assay [2] were 0.00213 s⁻¹ and 0.000234 s⁻¹, respectively.

B15: suPAR_DB05_B04 (scFv, V domains shown)
VH: QVQLVQSGAEVKKPGASVKVSCKASGYTFTTYYMHWVRQAPGQGLEWMGWIDPSNGNTIYDQKFQGRVTMTRDTSTSTVYMELSSLRSEDTAVYYCARGYDVDWFVYWGQGTLVTVSS
VL: DIQMTQSPSSLSASVGDRVTITCSARSSVSYMYWYQQKPGKAPKLLIYRTSNLASGVPSRFSGSGSGTDFTLTISSLQPEDFATYYCQQYHSYPPTFGGGTKVEIK
notes: Screened as scFv
Consider B15, for which the off-rate constant (koff) came to 0.00623 s⁻¹ in assay [1] and 0.000606 s⁻¹ in assay [2].

B16: suPAR_DB05_C04 (scFv, V domains shown)
VH: QVQLVQSGAEVKKPGASVKVSCKASGFNIKDYYIHWVRQAPGQGLEWMGWIDPENGNTIYDQKFQGRVTMTRDTSTSTVYMELSSLRSEDTAVYYCARGYDVDWFVYWGQGTLVTVSS
VL: DIQMTQSPSSLSASVGDRVTITCSARQSVSYMYWYQQKPGKAPKLLIYRTSNLQSGVPSRFSGSGSGTDFTLTISSLQPEDFATYYCQQYHSYPPTFGGGTKVEIK
notes: Screened as scFv
Turning to B16, the koff worked out at 0.00452 s⁻¹ in assay [1] and 0.000457 s⁻¹ in assay [2].

B17: suPAR_DB05_A11 (scFv, V domains shown)
VH: QVQLVQSGAEVKKPGASVKVSCKASGYTFTGYYMHWVRQAPGQGLEWMGWIDPNSGGTNYAQKFQGRVTMTRDTSTSTVYMELSSLRSEDTAVYYCARGYDVDWFVYWGQGTLVTVSS
VL: DIQMTQSPSSLSASVGDRVTITCSARSSVSYMYWYQQKPGKAPKLLIYRTSNLASGVPSRFSGSGSGTDFTLTISSLQPEDFATYYCQQYHSYPPTFGGGTKVEIK
notes: Screened as scFv
B17: the results for the dissociation rate constant (koff) in assay [1] and in assay [2] were 0.0018 s⁻¹ and 0.000311 s⁻¹, respectively.

B18: suPAR_DB05_C03 (scFv, V domains shown)
VH: QVQLVQSGAEVKKPGASVKVSCKASGYTFTNYYMHWVRQAPGQGLEWMGWIDHEGGNTSYAQKFQGRVTMTRDTSTSTVYMELSSLRSEDTAVYYCARGYDVDWFVYWGQGTLVTVSS
VL: DIQMTQSPSSLSASVGDRVTITCRARSSVSYMYWYQQKPGKAPKLLIYRTSNLASGVPSRFSGSGSGTDFTLTISSLQPEDFATYYCQQYHSYPPTFGGGTKVEIK
notes: Screened as scFv
With B18, the koff in assay [1] is 0.00367 s⁻¹; in assay [2], 0.000455 s⁻¹.

B19: suPAR_DB05_C05 (scFv, V domains shown)
VH: QVQLVQSGAEVKKPGASVKVSCKASGYNIKSYYIHWVRQAPGQGLEWMGWIDPNSGGTNYAQNFQGRVTMTRDTSTSTVYMELSSLRSEDTAVYYCARGYDVDWFVYWGQGTLVTVSS
VL: DIQMTQSPSSLSASVGDRVTITCSARSSVSYMYWYQQKPGKAPKLLIYRTSNLASGVPSRFSGSGSGTDFTLTISSLQPEDFATYYCQQYHSYPPTFGGGTKVEIK
notes: Screened as scFv
Take B19: the koff in assay [1] turned out to be 0.00547 s⁻¹; in assay [2], 0.000202 s⁻¹.

(Values after patent US20250215104A1 (WALDEN BIOSCIENCES, published 2025).)
